Measured values: patent publication US20210347891A1

Experiments:
[1] = molecular target: single chain FcRn-β2m-his (human scFcRn, Acro Biosystems Cat. No. FCM-H5286) (human) (UniProt P55899); experiment: SPR, antibody on CM5 chip, scFcRn 400-25 nM, pH 5.8 PBS
[2] = molecular target: single chain FcRn-β2m-his (human scFcRn, Acro Biosystems Cat. No. FCM-H5286) (human) (UniProt P55899); experiment: SPR, antibody on CM5 chip, scFcRn, pH 5.8
[3] = molecular target: single chain FcRn-β2m-his (human scFcRn, Acro Biosystems Cat. No. FCM-H5286) (human) (UniProt P55899); experiment: SPR, antibody on CM5 chip, scFcRn 400-25 nM, pH 5.8 PBS, 1:1 Langmuir

single chain FcRn-β2m-his (human scFcRn, Acro Biosystems Cat. No. FCM-H5286) (human), sequence (P55899 other isoform, or with tags, fused parts or gaps): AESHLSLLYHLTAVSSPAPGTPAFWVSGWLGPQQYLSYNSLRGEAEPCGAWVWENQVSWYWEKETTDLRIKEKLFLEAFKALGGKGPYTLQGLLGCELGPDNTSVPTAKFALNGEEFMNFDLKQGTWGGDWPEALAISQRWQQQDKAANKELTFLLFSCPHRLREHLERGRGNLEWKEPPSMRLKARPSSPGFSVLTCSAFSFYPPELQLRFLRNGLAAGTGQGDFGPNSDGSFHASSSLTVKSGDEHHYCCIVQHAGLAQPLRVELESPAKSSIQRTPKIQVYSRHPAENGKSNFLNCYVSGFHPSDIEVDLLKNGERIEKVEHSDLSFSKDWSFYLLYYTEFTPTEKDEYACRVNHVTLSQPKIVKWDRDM

Row | Binder | Kd [1] [nM] | fold enhanced KD comparing with wild type IgG2 [2] [fold] | Kd [3] [nM] | koff [3] [s⁻¹] | kon [3] [M⁻¹ s⁻¹] | fold enhanced KD comparing with wild type IgG3 [2] [fold] | fold enhanced KD comparing with wild type IgG4 [2] [fold]
1 | Herceptin-IgG2 (wild type IgG2 with the Fab of trastuzumab) (antibody, part only; not given: Fab (trastuzumab), not shown: another chain or arm of the molecule, Glycosylated at N297 (HEK293F expression). The Fc is a disulfide-linked homodimer in the full IgG.) Fc: ERKCCVECPPCPAPPVAGPSVFLFPPKPKDTLMISRTPEVTCVVVDVSHEDPEVQFNWYVDGVEVHNAKTKPREEQFNSTFRVVSVLTVVHQDWLNGKEYKCKVSNKGLPAPIEKTISKTKGQPREPQVYTLPPSREEMTKNQVSLTCLVKGFYPSDISVEWESNGQPENNYKTTPPMLDSDGSFFLYSKLTVDKSRWQQGNVFSCSVMHEALHNHYTQKSLSLSPGK | 2140 |  |  |  |  |  | 
2 | Herceptin-IgG2-DHS (V309D, Q311H, N434S) (antibody, part only; not given: trastuzumab Fab, not shown: another chain or arm of the molecule, Glycosylated at N297 (HEK293F expression). The Fc is a disulfide-linked homodimer in the full IgG.) Fc: ERKCCVECPPCPAPPVAGPSVFLFPPKPKDTLMISRTPEVTCVVVDVSHEDPEVQFNWYVDGVEVHNAKTKPREEQFNSTFRVVSVLTVDHHDWLNGKEYKCKVSNKGLPAPIEKTISKTKGQPREPQVYTLPPSREEMTKNQVSLTCLVKGFYPSDISVEWESNGQPENNYKTTPPMLDSDGSFFLYSKLTVDKSRWQQGNVFSCSVMHEALHSHYTQKSLSLSPGK |  | 5.7 | 377 | 0.086 | 227000 |  | 
3 | Herceptin-IgG3 (wild type IgG3 with the Fab of trastuzumab) (antibody, part only; not given: trastuzumab Fab; H435 or R435 unclear, not shown: another chain or arm of the molecule, Glycosylated Fc homodimer (HEK293F); one chain is given.) Fc: ELKTPLGDTTHTCPRCPEPKSCDTPPPCPRCPEPKSCDTPPPCPRCPEPKSCDTPPPCPRCPAPELLGGPSVFLFPPKPKDTLMISRTPEVTCVVVDVSHEDPEVQFKWYVDGVEVHNAKTKPREEQYNSTFRVVSVLTVLHQDWLNGKEYKCKVSNKALPAPIEKTISKTKGQPREPQVYTLPPSREEMTKNQVSLTCLVKGFYPSDIAVEWESSGQPENNYNTTPPMLDSDGSFFLYSKLTVDKSRWQQGNIFSCSVMHEALHNHFTQKSLSLSPGK | 4080 |  |  |  |  |  | 
4 | Herceptin-IgG3-DHS (L309D, Q311H, N434S) (antibody, part only; not given: trastuzumab Fab, not shown: another chain or arm of the molecule, Glycosylated Fc homodimer (HEK293F); one chain is given.) Fc: ELKTPLGDTTHTCPRCPEPKSCDTPPPCPRCPEPKSCDTPPPCPRCPEPKSCDTPPPCPRCPAPELLGGPSVFLFPPKPKDTLMISRTPEVTCVVVDVSHEDPEVQFKWYVDGVEVHNAKTKPREEQYNSTFRVVSVLTVDHHDWLNGKEYKCKVSNKALPAPIEKTISKTKGQPREPQVYTLPPSREEMTKNQVSLTCLVKGFYPSDIAVEWESSGQPENNYNTTPPMLDSDGSFFLYSKLTVDKSRWQQGNIFSCSVMHEALHSHFTQKSLSLSPGK |  |  | 739 | 0.126 | 170000 | 5.5 | 
5 | Herceptin-IgG4-DHS (L309D, Q311H, N434S) (antibody, part only; not given: trastuzumab Fab, not shown: another chain or arm of the molecule, Glycosylated Fc homodimer (HEK293F); one chain is given.) Fc: ESKYGPPCPSCPAPEFLGGPSVFLFPPKPKDTLMISRTPEVTCVVVDVSQEDPEVQFNWYVDGVEVHNAKTKPREEQFNSTYRVVSVLTVDHHDWLNGKEYKCKVSNKGLPSSIEKTISKAKGQPREPQVYTLPPSQEEMTKNQVSLTCLVKGFYPSDIAVEWESNGQPENNYKTTPPVLDSDGSFFLYSRLTVDKSRWQEGNVFSCSVMHEALHSHYTQKSLSLSLGK |  |  | 832 | 0.151 | 281000 |  | 3
